Substitutions are numbered along the chain they refer to.
How the values were obtained:
mStau2 dsRBD1-2 H36A = target: T1, mStau2 dsRBD1-2 H36A (Mus musculus, UniProt Q8CJ67 8-181, H36A); assay: SPR; Hill n 0.9; SPR: HBS-EP (10 mM HEPES pH 7.4, 150 mM NaCl, 3 mM EDTA, 0.005% P20); EMSA: 5 nM RNA, protein buffer (40 mM Bis-Tris pH 7, 150 mM NaCl, 2 mM DTT presumed), 4% glycerol, 30 ug/mL yeast tRNA, RT; NMR: 150 mM NaCl, 20 mM Na phosphate pH 7.0, 5 mM DTT, 298 K; conditions: protein: recombinant; label: 5' 32P (EMSA); biotin (SPR); imperfect hairpin, 26 bp with two bulges
T1 sequence: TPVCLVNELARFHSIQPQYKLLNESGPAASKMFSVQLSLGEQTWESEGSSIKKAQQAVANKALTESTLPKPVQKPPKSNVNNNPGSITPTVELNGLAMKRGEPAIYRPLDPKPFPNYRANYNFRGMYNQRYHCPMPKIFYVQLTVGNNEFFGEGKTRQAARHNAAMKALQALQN

mStau2 dsRBD1-2 K59A [1] = target: T2, mStau2 dsRBD1-2 K59A (Mus musculus, UniProt Q8CJ67 8-181, K59A); assay: as above; conditions: protein: recombinant; label: 5' 32P (EMSA); biotin (SPR); imperfect hairpin, 26 bp with two bulges
T2 sequence: T1 sequence with A29H, K52A

mStau2 full-length = target: T3, mStau2 full-length (Mus musculus, UniProt Q8CJ67 1-570); assay: EMSA; stated as 100 nM range; SPR: HBS-EP (10 mM HEPES pH 7.4, 150 mM NaCl, 3 mM EDTA, 0.005% P20); EMSA: 5 nM RNA, protein buffer (40 mM Bis-Tris pH 7, 150 mM NaCl, 2 mM DTT presumed), 4% glycerol, 30 ug/mL yeast tRNA, RT; NMR: 150 mM NaCl, 20 mM Na phosphate pH 7.0, 5 mM DTT, 298 K; conditions: protein: recombinant; tags: HisSUMO; label: 5' 32P (EMSA); biotin (SPR); imperfect hairpin, 26 bp with two bulges
T3 sequence: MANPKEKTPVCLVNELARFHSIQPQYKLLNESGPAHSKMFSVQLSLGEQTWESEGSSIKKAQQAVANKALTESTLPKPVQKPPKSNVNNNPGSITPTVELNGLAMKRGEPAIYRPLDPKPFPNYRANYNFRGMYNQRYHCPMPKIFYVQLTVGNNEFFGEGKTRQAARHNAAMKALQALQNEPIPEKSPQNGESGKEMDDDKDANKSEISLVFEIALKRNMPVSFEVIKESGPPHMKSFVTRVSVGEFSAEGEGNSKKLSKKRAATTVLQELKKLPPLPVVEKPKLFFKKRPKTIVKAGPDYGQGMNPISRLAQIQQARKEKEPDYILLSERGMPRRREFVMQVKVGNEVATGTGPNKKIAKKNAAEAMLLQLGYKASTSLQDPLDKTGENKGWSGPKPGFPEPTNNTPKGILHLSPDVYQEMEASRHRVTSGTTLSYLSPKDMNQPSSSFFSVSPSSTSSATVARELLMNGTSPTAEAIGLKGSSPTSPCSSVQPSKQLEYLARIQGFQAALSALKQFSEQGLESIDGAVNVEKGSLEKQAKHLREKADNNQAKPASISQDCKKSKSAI

mStau2 dsRBD2 [2] = target: T4, mStau2 dsRBD2 (Mus musculus, UniProt Q8CJ67 95-181); assay: SPR; Hill n 1.1; text says 829 nM; SPR: HBS-EP (10 mM HEPES pH 7.4, 150 mM NaCl, 3 mM EDTA, 0.005% P20); EMSA: 5 nM RNA, protein buffer (40 mM Bis-Tris pH 7, 150 mM NaCl, 2 mM DTT presumed), 4% glycerol, 30 ug/mL yeast tRNA, RT; NMR: 150 mM NaCl, 20 mM Na phosphate pH 7.0, 5 mM DTT, 298 K; conditions: protein: recombinant; label: 5' 32P (EMSA); biotin (SPR); imperfect hairpin, 26 bp with two bulges
T4 sequence: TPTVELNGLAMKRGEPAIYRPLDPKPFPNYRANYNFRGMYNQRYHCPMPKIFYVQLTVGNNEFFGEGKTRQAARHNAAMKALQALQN

mStau2 dsRBD1-2 K59A [3] = target: T2, mStau2 dsRBD1-2 K59A; assay: SPR; Hill n 1.2; SPR: HBS-EP (10 mM HEPES pH 7.4, 150 mM NaCl, 3 mM EDTA, 0.005% P20); EMSA: 5 nM RNA, protein buffer (40 mM Bis-Tris pH 7, 150 mM NaCl, 2 mM DTT presumed), 4% glycerol, 30 ug/mL yeast tRNA, RT; NMR: 150 mM NaCl, 20 mM Na phosphate pH 7.0, 5 mM DTT, 298 K; conditions: protein: recombinant; label: 5' 32P (EMSA); biotin (SPR); hairpin, 18 bp stem
mStau2 dsRBD2 [4] = target: T4, mStau2 dsRBD2; assay: SPR; Hill n 1.3; SPR: HBS-EP (10 mM HEPES pH 7.4, 150 mM NaCl, 3 mM EDTA, 0.005% P20); EMSA: 5 nM RNA, protein buffer (40 mM Bis-Tris pH 7, 150 mM NaCl, 2 mM DTT presumed), 4% glycerol, 30 ug/mL yeast tRNA, RT; NMR: 150 mM NaCl, 20 mM Na phosphate pH 7.0, 5 mM DTT, 298 K; conditions: protein: recombinant; label: 5' 32P (EMSA); biotin (SPR); hairpin, 18 bp stem

B1: SRS* (SRS3) (structured_RNA)
RNA: GGUAUGUGUGAAUGUGCAUGAAUAUAUAUAUAUAUGCAUAUAUAUAUUUGUAUAUGUUCACACAUG
Kd (mStau2 dsRBD1-2 H36A): 499 ± 149 nM | Kd (mStau2 dsRBD1-2 K59A [1]): 624 ± 142 nM | Kd (mStau2 full-length): ~100 nM | Kd (mStau2 dsRBD2 [2]): 828 ± 29 nM

GGUAUAUACAUGCACAUGCAAUUUGUGUAUGUGUAUGUAUAUA (structured_RNA) [SRS2+5]
Kd (mStau2 dsRBD1-2 K59A [3]): 509 ± 136 nM | Kd (mStau2 dsRBD2 [4]): 650 ± 247 nM

Source: paper PMC6477676, “Staufen2-mediated RNA recognition and localization requires combinatorial action of multiple domains”
